Test results taken from patent publication US20220259289A1 (Janssen / Centocor, published 2022).

Tests used:
Assay in all cases: ELISA, bacterial lysate on plate-bound antigen, luminescence
[1] = molecular target: unrelated Fc-fused recombinant protein (negative control)
[2] = molecular target: T1, recombinant biotinylated human CD137 protein (Fc-fusion protein, R&D Systems 838-4B) (human, UniProt Q07011 24-186, biotinylated (site not stated))
T1 construct: Bought Fc fusion; The ELISA used the same antigen as the panning; also called CD137-Fc; biotinylated CD137; not shown: Fc part of the bought fusion protein
Protocol: (§1) Streptavidin-coated Maxisorp plates (Nunc catalog 436110) were blocked for 1 h in Starting Block T20 (Pierce) and then coated with biotinylated CD137 (using same antigen as in panning) or negative controls (an unrelated Fc-fused recombinant protein and human serum albumin) for 1 h. Plates were rinsed with TBST and diluted lysate was applied to plates for 1 h. Following additional rinses, wells were treated with HRP-conjugated anti-Centyrin antibody (PAB25) for 1 h and then assayed with POD (Roche catalog 11582950001).

[3] = molecular target: T2, human serum albumin (human, UniProt P02768 25-609)
T2 construct: Negative control antigen of the screening ELISA; also called HSA
Protocol: as §1

T2 sequence (P02768 25-609 limits assumed): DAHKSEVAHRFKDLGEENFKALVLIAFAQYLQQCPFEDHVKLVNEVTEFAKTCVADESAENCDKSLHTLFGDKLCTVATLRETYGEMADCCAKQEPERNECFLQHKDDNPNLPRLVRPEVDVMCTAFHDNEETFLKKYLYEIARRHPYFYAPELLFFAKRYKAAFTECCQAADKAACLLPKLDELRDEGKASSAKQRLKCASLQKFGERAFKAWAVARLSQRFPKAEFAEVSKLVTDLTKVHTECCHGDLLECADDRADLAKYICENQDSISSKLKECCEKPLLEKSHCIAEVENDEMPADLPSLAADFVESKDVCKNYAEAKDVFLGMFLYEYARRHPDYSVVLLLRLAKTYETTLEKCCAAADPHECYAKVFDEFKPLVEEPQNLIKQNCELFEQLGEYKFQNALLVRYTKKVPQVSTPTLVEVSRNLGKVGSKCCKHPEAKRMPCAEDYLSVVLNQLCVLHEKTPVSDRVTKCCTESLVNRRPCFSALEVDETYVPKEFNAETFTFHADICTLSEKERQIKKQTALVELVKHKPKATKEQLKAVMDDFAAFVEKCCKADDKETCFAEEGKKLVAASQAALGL

Binder | ELISA Fc Control (RLU) [1] [RLU] | ELISA CD137-Fc (RLU) [2] [RLU] | ELISA HSA (RLU) [3] [RLU]
ISOP120HR5P1H7 (designed binder, not shown: small tags and cut ends, FN3 domain (Centyrin); tested as E. coli lysate) LPAPKNLVVSRVTEDSARLSWTAPDAAFDSFDIYYGEPGNLGEAIVLTVPGSERSYDLTGLKPGTEYLVTIYGVKGGDYSSPLSAIFTT | 640 | 1.53e+06 | 480
ISOP120HR5P1B4 (designed binder, not shown: small tags and cut ends, FN3 domain (Centyrin); tested as E. coli lysate) LPAPKNLVVSRVTEDSARLSWTAPDAAFDSFSIYYGEYYNLGEAIVLTVPGSERSYDLTGLKPGTEYVVTIYGVKGGGYSNPLSAIFTT | 320 | 1.19e+06 | 320
ISOP120FR5P1F1 (designed binder, not shown: small tags and cut ends, FN3 domain (Centyrin); tested as E. coli lysate) LPAPKNLVVSRVTEDSARLSWTAPDAAFDSFTIYYFENENGGEAIVLTVPGSERSYDLTGLKPGTEYLVTIYGVKGCDWSDPLSAIFTT | 480 | 1.23e+06 | 640
ISOP120FR5P1C2 (designed binder, not shown: small tags and cut ends, FN3 domain (Centyrin); tested as E. coli lysate) LPAPKNLVVSRVTEDSARLSWTAPDAAFDSFDINYFEQPKGGEAIVLTVPGSERSYDLTGLKPGTEYLVTIYGVKGGPYSPPLSAIFTT | 240 | 389000 | 400
ISOP120ER5P1B6 (designed binder, not shown: small tags and cut ends, FN3 domain (Centyrin); tested as E. coli lysate) LPAPKNLVVSRVTEDSARLSWTAPDAAFDSFDIYYGEHWKLGEAIVLTVQGSERSYDLTGLKPGTEYLVTIYGVKGGQWSFPLSAIFTT | 160 | 1.35e+06 | 400
ISOP120ER5P1A8 (designed binder, not shown: small tags and cut ends, FN3 domain (Centyrin); tested as E. coli lysate) LPAPKNLVVSRVTEDSARLSWTAPDAAFDSFDIYYFEHPVGGEAIVLTVPGSERSYDLTGLKPGTEYLVTIYGVKGGYLSMPLSAIFTT | 400 | 1.9e+06 | 320
ISOP120FR5P1A11 (designed binder, not shown: small tags and cut ends, FN3 domain (Centyrin); tested as E. coli lysate) LPAPKNLVVSRVTEDSARLSWTAPDAAFDSFTIYYFENENGGEAIVLTVPGSERSYDLTGLKPGTEYLVTIYGVKGGHWSRPLSAIFTT | 480 | 920000 | 480
ISOP120FR5P1H5 (designed binder, not shown: small tags and cut ends, FN3 domain (Centyrin); tested as E. coli lysate) LPAPKNLVVSRVTEDSARLSWTAPDAAFDSLQIYYFEWVVGGEAIVLTVPGSERSYDLTGLKLGTEYLVTIYGVKGGNFSDPLSAIFTT | 400 | 460000 | 560
ISOP120ER5P1C6 (designed binder, not shown: small tags and cut ends, FN3 domain (Centyrin); tested as E. coli lysate) LPAPKNLVVSRVTEDSARLSWTAPDAAFDSFSIYYGEWHALGEAIVLTVPGSERSYDLTGLKPGTEYVVTIYGVKGGTYSLPLSAISTT | 320 | 495000 | 400
ISOP120HR5P1A7 (designed binder, not shown: small tags and cut ends, FN3 domain (Centyrin); tested as E. coli lysate) LPAPKNLVVSRVTEDSARLSWTAPDAAFDSFEIYYAEPRYYGEAIVLTVPGSERSYDLTGLKPGTEYTVTIYGVKGGYYSSPLSAIFTT | 400 | 987000 | 480
ISOP120HR5P1A3 (designed binder, not shown: small tags and cut ends, FN3 domain (Centyrin); tested as E. coli lysate) LPAPKNLVVSRVTEDSARLSWTAPDAAFDSFEIYYAEFGYYGEAIVLTVPGSERSYDLTGLKPGTEYTVTIYGVKGGWYSTPLSAIFTT | 560 | 1.08e+06 | 240
ISOP120HR5P1D7 (designed binder, not shown: small tags and cut ends, FN3 domain (Centyrin); tested as E. coli lysate) LPAPKNLVVSRVTEDSARLSWTAPDAAFDSFDIYYLESWTRGEAIVLTVPGSERSYDLTGLKPGTEYLVTIYGVKGGSYSRPLSAIFTT | 320 | 1.1e+06 | 320
ISOP120ER5P1A11 (designed binder, not shown: small tags and cut ends, FN3 domain (Centyrin); tested as E. coli lysate) LPAPKNLVVSRVTEDSARLSWTAPDAAFDSFEIYYKELRAEGEAIVLTVPGSERSYDLTGLKPGTEYLVTIYGVKGGSVSIPLSAIFTT | 320 | 1.14e+06 | 320
ISOP120ER5P1H6 (designed binder, not shown: small tags and cut ends, FN3 domain (Centyrin); tested as E. coli lysate) LPAPKNLVVSRVTEDSARLSWTAPDAAFDSFSIYYGEWHALGEAIVLTVPGSERSYDLTGLKPGTEYVVTIYGVKGGTYSLPLSAIFTT | 320 | 589000 | 480
ISOP120ER5P1B4 (designed binder, not shown: small tags and cut ends, FN3 domain (Centyrin); tested as E. coli lysate) LPAPKNLVVSRVTEDSARLSWTAPDAAFDSFSILYGEPPALGEAIVLTVPGSERSYDLTGLKPGTEYWVTIYGVKGGVFSHPLSAIFTT | 400 | 499000 | 400
ISOP120GR5P1A11 (designed binder, not shown: small tags and cut ends, FN3 domain (Centyrin); tested as E. coli lysate) LPAPKNLVVSRVTEDSARLSWTAPDAAFDSFGIPYWEWTTEGEAIQLIVPGSERSYDLTGLKPATEYHVHIVGVKGGSFSEPLPADFTT | 480 | 1.05e+06 | 320
ISOP120AR5P1C4 (designed binder, not shown: small tags and cut ends, FN3 domain (Centyrin); tested as E. coli lysate) LPAPKNLVVSRVTEDSARLSWAFQWHIFDSFLIQYQESEKVGEAIVLTVPGSERSYDLTGLKPGTEYTVSIYGVGQPYTVYDSNPLSAIFTT | 320 | 708000 | 240
ISOP120AR5P1C5 (designed binder, not shown: small tags and cut ends, FN3 domain (Centyrin); tested as E. coli lysate) LPAPKNLVVSRVTEDSARLSWTLPNIHFDSFLIQYQESEKVGEAIVLTVPGSERSYDLTGLKPGTEYTVSIYGVGRHYTVYDSNPLSAIFTT | 320 | 425000 | 160
ISOP120HR5P1A6 (designed binder, not shown: small tags and cut ends, FN3 domain (Centyrin); tested as E. coli lysate) LPAPKNLVVSRVTEDSARLSWTAPDGAFDSFEIYYLEGGRGEAIVLTVPGSERSYDLTGLKPGTEYLVTIYGIKCGWASNPLSAIFTT | 640 | 1.29e+06 | 400
ISOP120GR5P1B11 (designed binder, not shown: small tags and cut ends, FN3 domain (Centyrin); tested as E. coli lysate) LPAPKNLVVSRVTEDSARLSWTAPDAAFDSFNIKYWEANLYGEAIVLTVPGSERSYGLTGLKPGTEYRVHIRGVKGGINSFPLVAVFTT | 320 | 875000 | 160
ISOP120GR5P1H11 (designed binder, not shown: small tags and cut ends, FN3 domain (Centyrin); tested as E. coli lysate) LPAPKNLVVSRVTEDSARLSWTAPDAAFDSFYIAYWEYWGNGEAIGLIVPGSERSYDLTGLKPGTEYHVHIVGVKGGAGSVPLWANFTT | 640 | 1.31e+06 | 320
ISOP120GR5P1A10 (designed binder, not shown: small tags and cut ends, FN3 domain (Centyrin); tested as E. coli lysate) LPAPKNLVVSRVTEDSARLSWTAPDAAFDSFEIPYIEVETIGEAIWLHVPGSERSYDLTGLKPGTEYSVGINGVKGGHTSNPLSARFTT | 400 | 627000 | 400
ISOP120GR5P1C10 (designed binder, not shown: small tags and cut ends, FN3 domain (Centyrin); tested as E. coli lysate) LPAPKNLVVSRVTEDSARLSWTAPDGAFDSFEIPYIEVETIGEAIWLHVPGSERSYDLTGLKPGTEYSVGINGVKGGHTSNPLSARFTT | 240 | 502000 | 480
